The target in data set [1] is T1, ADAM33 (Homo sapiens, UniProt Q9BZ11).
T1 construct: made in house; host or cells: Drosophila melanogaster S2 cells
T1 sequence (Q9BZ11 204-409 limits assumed): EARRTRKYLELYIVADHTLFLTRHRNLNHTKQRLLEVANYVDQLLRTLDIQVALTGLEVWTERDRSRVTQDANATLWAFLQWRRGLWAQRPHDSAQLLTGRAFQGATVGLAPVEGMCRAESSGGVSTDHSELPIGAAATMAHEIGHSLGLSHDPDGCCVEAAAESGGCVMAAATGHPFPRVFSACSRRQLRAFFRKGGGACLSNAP
The data set can be described thus: HPLC inhibition assay, ADAM33cat with KL-1 peptide substrate. In kind it is biochemical. Conditions: at 2 µM. The procedure:
The inhibition dissociation constants (Ki) for inhibitors were determined as follows: an HPLC assay was performed in the presence or absence of inhibitors for 2 h at RT using ADAM33cat (80 nM) and KL-1 peptide substrate (100 μM). For testing tissue inhibitor of metalloproteinases (TIMPs), ADAM33 and human TIMPs were pre-incubated for 1 h at RT. […] Initial velocities were calculated by dividing cleaved product over reaction time. The initial velocities were plotted as a function of inhibitor concentration. For tight binding inhibitors (IK682, TIMP-3), the apparent inhibitor dissociation constants (Ki app values) were calculated by fitting the curve to the following modified Morrison's equation: vi=vo{[(Eo−Io−Ki^app)^2+4 Ki^appEo]^1/2+(Eo−IoKI^app)}/2Eo where Ki^app=Ki(1+S/Km), vo is the uninhibited initial velocity, vi is the initial velocity in the presence of inhibitor at any given inhibitor concentration Io, and Eo is initial enzyme concentration. When the substrate concentration S<<Km, Ki^app is approximately equal to Ki.

A further data set concerns the target human ADAM17 (Homo sapiens, UniProt P78536). The data set can be described thus: Inhibition of human ADAM17 by human TIMPs, fluorogenic pro-TNF-alpha substrate. The conditions noted are these: ADAM17 1 nM, substrate 25 μM. The format is biochemical. The procedure: Inhibition of human ADAM17 by human TIMPs was determined as follows: ADAM17 (1 nM) was pre-incubated with serial dilutions of TIMP-1 (0–4 μM), TIMP-2 (0–1 μM), TIMP-3 (0–0.2 μM), or TIMP-4 (0–4 μM), in assay buffer (25 mM HEPES, pH7.5, 5 mM CaCl2, 0.1 mM ZnCl2) for 1 h at RT, followed by addition of the fluorogenic pro-TNF-alpha substrate (25 μM), K(mca)SPLAQAVRSSSRK(dnp) (SEQ ID NO: 46). The reaction velocities were measured using the GEMINI fluorescence reader at 320/380 nm for 1 h and inhibition dissociation constants were calculated by fitting the data to Morrison equation (TIMP-2 and TIMP-3) or Michaelis-Menten equation (TIMP-1 and TIMP-4) as described above.

In data set [2] the test system is ADAM33. The data set can be described thus: MCF 12-mer peptide proteolysis assay (HPLC). In kind it is biochemical, human. The conditions noted are these: MCF peptide substrate. On the procedure:
A 12-mer peptide (i.e. Ac-LPPVAASSLNRD-NH2; SEQ ID NO: 48), derived from human mast-cell growth factor (accession number NP-038626) was synthesized as a substrate for ADAM33. Reactions were initiated by addition of 200 nM enzyme to appropriate amounts of substrate in assay buffer (25 mM HEPES, pH 7.5, 0.5 M NaCl, 0.1% n-octyl-β-D-glucoside), incubated at 22° C. for 2 h and subsequently quenched with 1% TFA. When inhibitors were evaluated, the enzyme and inhibitors were preincubated at 22° C. for 30 min prior to initiation of the assays. Substrate and products were separated by HPLC using a C-8 reverse phase column (Zobrax 3.5 μm, 4.6 mmD/5 cmL, Agilent, Palo Alto, Calif., 0.1% TFA acetonitrile/H2O). Elution was monitored at 214 nm, and peaks identified by mass spectroscopy. Initial rates of proteolysis were determined using reactions in which less than 10% of the substrate was consumed. kcat/Km values were calculated assuming the enzymes were 100% active.
Production of ADAM33 and mutants thereof were produced essentially as described in Example 1. Proteolytic assays and methods for determining catalytic rates are essentially as described in Examples 2 and 3.

Sequence of human ADAM17 (P78536 215-824): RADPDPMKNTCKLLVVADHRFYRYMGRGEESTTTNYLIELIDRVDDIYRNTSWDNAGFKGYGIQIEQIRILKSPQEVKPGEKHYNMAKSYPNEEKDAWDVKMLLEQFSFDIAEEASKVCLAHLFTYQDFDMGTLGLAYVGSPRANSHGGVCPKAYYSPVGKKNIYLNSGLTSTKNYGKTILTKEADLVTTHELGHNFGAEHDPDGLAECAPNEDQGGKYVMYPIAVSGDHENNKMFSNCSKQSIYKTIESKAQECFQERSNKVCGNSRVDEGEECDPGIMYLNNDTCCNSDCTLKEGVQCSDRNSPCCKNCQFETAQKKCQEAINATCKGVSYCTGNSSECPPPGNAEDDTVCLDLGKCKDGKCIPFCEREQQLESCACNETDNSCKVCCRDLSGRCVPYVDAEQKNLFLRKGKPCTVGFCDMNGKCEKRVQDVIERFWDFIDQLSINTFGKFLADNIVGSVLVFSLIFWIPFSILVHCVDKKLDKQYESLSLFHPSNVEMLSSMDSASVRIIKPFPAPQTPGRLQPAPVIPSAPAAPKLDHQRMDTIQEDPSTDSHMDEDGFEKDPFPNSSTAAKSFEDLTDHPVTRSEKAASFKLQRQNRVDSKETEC

In the case of “TIMP-1: human tissue inhibitor of metalloproteinases 1, endogenous inhibitor of MMPs and ADAMs”, the “inhibition of ADAM33 activity” value with ADAM33 [1] is given as “no inhibition”. In the data set with human ADAM17, the “inhibition of human ADAM17 activity” value is given as “weakly inhibited”.

B1: pro-CAT single chain zymogen form: single chain zymogen form of ADAM33 (R203T/R207S; SEQ ID NO:54) (protein)
chain: LQGHIPGQPVTPHWVLDGQPWRTVSLEEPVSKPDMGLVALEAEGQELLLELEKNHRLLAPGYIETHYGPDGQPVVLAPNHTDHCHYQGRVRGFPDSWVVLCTCSGMSGLITLSRNASYYLRPWPPRGSKDFSTHEIFRMEQLLTWKGTCGHRDPGNKAGMTSLPGGPQSRGRTEARSTRKYLELYIVADHTLFLTRHRNLNHTKQRLLEVANYVDQLLRTLDIQVALTGLEVWTERDRSRVTQDANATLWAFLQWRRGLWAQRPHDSAQLLTGRAFQGATVGLAPVEGMCRAESSGGVSTDHSELPIGAAATMAHEIGHSLGLSHDPDGCCVEAAAESGGCVMAAATGHPFPRVFSACSRRQLRAFFRKGGGACLSNAP
modifications: homo sapiens
B1: the “catalytic efficiency relative to CAT domain” value in the data set with ADAM33 [2] is “no significant difference”.

B2: TIMP-3: human tissue inhibitor of metalloproteinases 3, endogenous inhibitor of MMPs and ADAMs (protein)
chain: CTCSPSHPQDAFCNSDIVIRAKVVGKKLVKEGPFGTLVYTIKQMKMYRGFTKMPHVQYIHTEASESLCGLKLEVNKYQYLLTGRVYDGKMYTGLCNFVERWDQLTLSQRKGLNYRYHLGCNCKIKSCYYLPCFVTSKNECLWTDMLSNFGYPGYQSKHYACIRQKGGYCSWYRGWAPPDKSIINATDP
Consider B2, for which, in the data set with human ADAM17, the “inhibition of human ADAM17 activity” value is recorded as “inhibited”.

B3: TIMP4: human tissue inhibitor of metalloproteinases 4, endogenous inhibitor of MMPs and ADAMs (protein)
chain: CSCAPAHPQQHICHSALVIRAKISSEKVVPASADPADTEKMLRYEIKQIKMFKGFEKVKDVQYIYTPFDSSLCGVKLEANSQKQYLLTGQVLSDGKVFIHLCNYIEPWEDLSLVQRESLNHHYHLNCGCQITTCYTVPCTISAPNECLWTDWLLERKLYGYQAQHYVCMKHVDGTCSWYRGHLPLRKEFVDIVQP
Turning to B3, in the data set with human ADAM17, the “inhibition of human ADAM17 activity” value is “inhibited”.
